T1: Med12 (Srb8), S. cerevisiae (S. cerevisiae, UniProt P25648 1-1427)
T1 sequence: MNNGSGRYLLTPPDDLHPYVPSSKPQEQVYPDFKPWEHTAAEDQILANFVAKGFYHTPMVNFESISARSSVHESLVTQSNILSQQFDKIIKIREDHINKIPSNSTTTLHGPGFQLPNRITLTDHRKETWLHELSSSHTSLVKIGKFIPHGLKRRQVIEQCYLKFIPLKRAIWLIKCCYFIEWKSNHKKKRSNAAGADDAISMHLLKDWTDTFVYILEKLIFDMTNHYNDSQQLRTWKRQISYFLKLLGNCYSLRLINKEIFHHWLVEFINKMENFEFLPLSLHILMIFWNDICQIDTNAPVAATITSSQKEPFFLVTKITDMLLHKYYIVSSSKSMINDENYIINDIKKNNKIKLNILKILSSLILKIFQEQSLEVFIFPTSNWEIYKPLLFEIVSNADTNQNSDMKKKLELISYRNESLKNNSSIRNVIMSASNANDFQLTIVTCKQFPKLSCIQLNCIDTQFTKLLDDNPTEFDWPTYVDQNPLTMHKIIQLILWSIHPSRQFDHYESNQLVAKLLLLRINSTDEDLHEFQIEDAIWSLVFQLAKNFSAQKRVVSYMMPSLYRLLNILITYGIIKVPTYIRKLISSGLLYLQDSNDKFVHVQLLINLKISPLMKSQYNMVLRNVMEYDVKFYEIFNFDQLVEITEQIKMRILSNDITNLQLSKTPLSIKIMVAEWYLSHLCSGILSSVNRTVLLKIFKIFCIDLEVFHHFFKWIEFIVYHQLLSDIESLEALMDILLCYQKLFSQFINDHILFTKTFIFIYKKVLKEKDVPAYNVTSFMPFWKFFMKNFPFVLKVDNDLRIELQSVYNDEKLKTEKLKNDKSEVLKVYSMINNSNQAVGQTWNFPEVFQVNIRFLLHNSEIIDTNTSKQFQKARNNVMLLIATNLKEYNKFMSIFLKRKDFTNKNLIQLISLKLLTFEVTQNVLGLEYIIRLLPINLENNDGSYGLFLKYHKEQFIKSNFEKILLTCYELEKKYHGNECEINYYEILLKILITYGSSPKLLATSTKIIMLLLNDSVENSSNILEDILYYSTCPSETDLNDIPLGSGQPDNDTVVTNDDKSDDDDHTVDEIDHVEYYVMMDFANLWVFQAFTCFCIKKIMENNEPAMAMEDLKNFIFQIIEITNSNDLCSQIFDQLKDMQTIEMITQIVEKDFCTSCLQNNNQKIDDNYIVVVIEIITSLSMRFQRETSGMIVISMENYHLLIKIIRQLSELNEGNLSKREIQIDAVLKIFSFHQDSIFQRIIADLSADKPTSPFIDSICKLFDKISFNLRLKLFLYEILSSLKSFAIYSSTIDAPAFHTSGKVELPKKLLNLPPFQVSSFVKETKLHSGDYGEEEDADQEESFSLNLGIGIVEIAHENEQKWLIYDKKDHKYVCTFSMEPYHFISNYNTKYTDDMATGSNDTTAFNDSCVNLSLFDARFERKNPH

T2: Cdk8 (Srb10) with a C-terminal TAP tag, S. cerevisiae (S. cerevisiae, UniProt P39073 1-555)
T2 sequence: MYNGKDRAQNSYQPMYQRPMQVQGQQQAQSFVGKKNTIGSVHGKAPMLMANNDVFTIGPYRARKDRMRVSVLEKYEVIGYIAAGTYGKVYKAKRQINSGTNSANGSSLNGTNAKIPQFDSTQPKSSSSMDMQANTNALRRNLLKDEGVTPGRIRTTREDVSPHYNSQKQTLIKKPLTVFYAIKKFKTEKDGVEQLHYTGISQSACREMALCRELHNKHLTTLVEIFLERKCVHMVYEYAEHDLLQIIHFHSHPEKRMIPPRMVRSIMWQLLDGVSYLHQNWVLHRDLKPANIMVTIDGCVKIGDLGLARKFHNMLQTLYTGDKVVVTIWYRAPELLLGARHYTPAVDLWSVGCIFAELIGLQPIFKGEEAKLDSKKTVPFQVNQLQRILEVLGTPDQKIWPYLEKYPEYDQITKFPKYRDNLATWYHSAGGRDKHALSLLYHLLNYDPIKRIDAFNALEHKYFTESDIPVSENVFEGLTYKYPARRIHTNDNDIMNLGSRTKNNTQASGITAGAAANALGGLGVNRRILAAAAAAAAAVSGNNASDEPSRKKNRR


Legend:
[1] = biological target: T1, Med12 (Srb8), S. cerevisiae; assay: cryo-EM structure
[2] = biological target: T2, Cdk8 (Srb10) with a C-terminal TAP tag, …; assay: tandem affinity purification

Row | binding result [1] | binding result [2] | Binder
1 | binds | binds | CycC (Srb11), S. cerevisiae (natural protein) MSGSFWTSTQRHHWQYTKASLAKERQKLWLLECQLFPQGLNIVMDSKQNGIEQSITKNIPITHRDLHYDKDYNLRIYCYFLIMKLGRRLNIRQYALATAHIYLSRFLIKASVREINLYMLVTTCVYLACKVEECPQYIRTLVSEARTLWPEFIPPDPTKVTEFEFYLLEELESYLIVHHPYQSLKQIVQVLKQPPFQITLSSDDLQNCWSLINDSYINDVHLLYPPHIIAVACLFITISIHGKPTKGSSLASAASEAIRDPKNSSSPVQIAFNRFMAESLVDLEEVMDTIQEQITLYDHWDKYHEQWIKFLLHTLYLRPASAI
2 | binds |  | Med13 (Srb9), S. cerevisiae (natural protein) MSSDASTYRLEDVLSSFYRVEKIKKINYHQYISKAQNDQWSIQMEFMLRKQDPKTLVALLSRDLWCFSINDDPVPTPPAIEHKPVSPDKIGTFTADYSKPNLPPHYALFLKALRRKIYINLALGSHNKLIQFGNACISLSGVPNYLVQLEPHLFVNGDLTVSLCAKNMGLVPMKEENLEESFLSKHALYLAPSGIRMHLAPASKQGYLITPPKHTELLLTTLSVSHGINLQNKKNLKWVAVVPDLGHLNGHTPTIASYLTPLLEAKKLVWPLHLIFAQPVADIENSTSGDPSEFHCLQDALDAIDDFIQLKQTAAYRTPGSSGVLSSNIAGTNPLSSDGAYTEQFQHYKNNSISSQPASYHSVQETNKISPKDFSPNFTGIDKLMLSPSDQFAPAFLNTPNNNINENELFNDRKQTTVSNDLENSPLKTELEANGRSLEKVNNSVSKTGSVDTLHNKEGTLEQREQNENLPSDKSDSMVDKELFGEDEDEDLFGDSNKSNSTNESNKSISDEITEDMFEMSDEEENNNNKSINKNNKEMHTDLGKDIPFFPSSEKPNIRTMSGTTKRLNGKRKYLDIPIDEMTLPTSPLYMDPGAPLPVETPRDRRKSVFAPLNFNPIIENNVDNKYKSGGKFSFSPLQKEEALNFDISMADLSSSEEEEDEEENGSSDEDLKSLNVRDDMKPSDNISTNTNIHEPQYINYSSIPSLQDSIIKQENFNSVNDANITSNKEGFNSIWKIPQNDIPQTESPLKTVDSSIQPIESNIKMTLEDNNVTSNPSEFTPNMVNSEISNLPKDKSGIPEFTPADPNLSFESSSSLPFLLRHMPLASIPDIFITPTPVVTISEKEQDILDLIAEQVVTDYNILGNLGIPKIAYRGVKDCQEGLITTTMLQLFSTFDRLNGNDTISKFYNMKQPYVFVKKHHELIKVKHDSQPFIKFLNFRPPNGIKNFKSLLLSSSFKEDCLSFAPTLSQTYINQELGFCELLKLTNEDPPGLMYLKAFDKNKLLLLAAQIVSYCSNNKNSIKNVPPILIILPLDNATLTELVDKANIFQVIKNEVCAKMPNIELYLKVIPMDFIRNVLVTVDQYVNVAISIYNMLPPKSVKFTHIAHTLPEKVNFRTMQQQQMQQQQQQQQQQQNNSTGSSSIIYYDSYIHLAYSRSVDKEWVFAALSDSYGQGSMTKTWYVGNSRGKFDDACNQIWNIALNLASKKFGKICLILTRLNGILPDDELMNWRRLSGRNIHLAVVCVDDNSKISFIDEDKLYPSFKPIYKDTRFGGRMDMTRLYDYEIRDIDQDIHGIVFQHPFPLAHSQHRCAIRSGALIKFKKCDGDTVWDKFAVNLLNCPHSDSTQLLETILEEFRNLAALNVWYGLSDGEDGHIPWHILAVKKMMNTLVHTRVKIANTSAATVHTATSSSIILSDK
